{
  "source": "patent US10745461B2",
  "about": "“Pulsed introduction of low-dose RANKL as a therapy for diet-induced atherosclerosis” (Saint Louis University, priority 2015, dated 2020)",
  "molecules": {"B1": {"name": "receptor activator of NF-κB ligand (protein, UniProt O35235 139-316, looked up)", "Tumor necrosis factor ligand …": "FSGAPAMMEGSWLDVAQRGKPEAQPFAHLTINAASIPSGSHKVTLSSWYHDRGWAKISNMTLSNGKLRVNQDGFYYLYANICFRHHETSGSVPTDYLQLMVYVVKTSIKIPSSHNLMKGGSTKNWSGNSEFHFYSINVGGFFKLRAGEEISIQVSNPSLLDPDQDATYFGAFKVQDID", "modifications": "GST tag"}},
  "key": {"ovariectomized mice": {"test_system": "ovariectomized mice", "assay": "Low-dose RANKL at various times post-OVX in C57BL/6J mice", "type": "in vivo", "conditions": "for TcREG induction (flow-cytometry, femora): OVX C57BL/6J, two doses 0.125 mg/kg 24 hours apart, 10 days after first treatment, 2, 3, 6, 8 weeks post-OVX, 0.125 mg/kg", "experimental": "FIGS. 9E-9F provide for examples of a low-dose RANKL treatment in a mouse model. All mice (C57BL/6J) were sham-operated (S) or ovariectomized (OVX) at 12 weeks of age. At time indicated after OVX, two doses of RANKL (0.125 mg/kg) were administered 24 hours apart 10 days after first treatment, mice were sacrificed. […] Representative images of the proximal tibia are shown from 3 weeks post-OVX in FIG. 9E. […] Representative images from the double-labeled femur (calcein green and alizarin red) from each group are shown. Arrows are shown to emphasize the distance between dyes. Data from 6 to 12 mice per group. For figure reference; ****=P<1×10^−4; ***=P<1×10^−3; **=P<0.01; *=P<0.05 and NS=not statistically significant."}, "DLL4": {"test_system": "DLL4", "assay": "DLL4 expression in mature osteoclasts by qRT-PCR", "type": "cell-based, mouse", "source_text": "DLL-4 expression is repressed in the presence of […] and IL-17 but can be de-repressed by RANKL. Having identified that DLL4 was required for osteoclasts to induce Foxp3 expression in CD8+ T cells we next tested if DLL-4 expression was affected by pro-inflammatory cytokines. […] As RANKL induced DLL4 in osteoclast precursors, it was hypothesized that adding additional RANKL may overcome the repression of DLL4 by TNFα. To assess the reversibility of DLL4 expression, mature osteoclasts were cultured overnight in 50 ng/ml RANKL and 20 ng/ml […], and then additional RANKL was added to the culture media (while maintaining 20 ng/ml TNFα) as shown in FIG. 5E. Indeed, addition of RANKL overcomes (within 24 hours) the repression of DLL4 by TNFα as assessed by qRT-PCR. […] The experiment was performed as above, but in this case FoxP3 induction in OT-I CD8 T-cells in the presence of OVA and either 10 ng/ml or 20 ng/ml TNFα was measured.\nOsteoclasts seeded on day 4 at 1.5×10^6 cells/ml were used in all experiments. RNA was isolated at time point described in Figure legends. 10 to 50 ng of RNA was used for first-strand cDNA synthesis in 50 μL reaction per kit instructions (Superscript III cDNA synthesis system; Invitrogen). In all cases 10% of the cDNA product was used in a 50 μL PCR reaction that contained 10 μM each forward and reverse primers. For quantitative PCR (qPCR) SYBR green system (Invitrogen) was used. Otherwise, cDNA was amplified (25 cycles) and the products resolved on 1.2% agarose gel and visualized by ethidium bromide staining."}, "[1]": {"test_system": "FoxP3+ CD8 T-cells (TcREG)", "assay": "RANKL dose finding: FoxP3+ CD8 T-cells in bone marrow of FoxP3-GFP reporter mice", "type": "in vivo", "conditions": "two consecutive days, 50 hours after first dose, lowest dose 0.125 mg/kg", "experimental": "FIGS. 1A, 1B and 1C indicate that TcREG are induced by activated osteoclasis. […] In the absence of RANK L treatment, very low level of conversion was observed after three days. […] ZA was administered intravenously one week prior to adoptive transfer of CD8 T-cells.\nIt was first determined the dose of RANKL that produced the maximal number FoxP3^+ CD8 T-cells in the bone marrow. RANKL was administered into FoxP3-GFP reporter mice at various doses for two consecutive days. Fifty hours after first dose, the mice were sacrificed and the numbers of CD8 T-cells that were GFP positive cells in the bone marrow were measured. […] The increased levels of FoxP3 in the bone marrow could either be due to recruitment of TcREG to the bone marrow or induction of FoxP3 expression in cells that were FoxP3 negative. To test for induction FACS sorted the GFP negative population of CD8 (Thy 1.2+ that were CD44 negative or naïve) from the spleens and bone marrow to high purity (FIG. 1C first panel) and adoptively transferred them into congenically marked (Thy 1.1) OT-I Rag^−/− mice. […] In the absence of RANKL administration low levels […] CD8 T-cell were detected (FIGS. 1B and C second panel), but RANKL administration (0.125 mg/kg) yielded ˜1% […] Thy 1.2 T-cells (FIGS. 1B and 1C third panel). […]"}},
  "note": "“Also recorded” adds a separate entry of the source.",
  "data": [
    {"molecule": "B1", "values": [
      {"measurement": "TcREG induction (flow-cytometry, femora)", "setting": "ovariectomized mice; listed as Low-dose RANKL", "result": "induced TcREG"},
      {"measurement": "TcREG induction (flow-cytometry, femora)", "setting": "ovariectomized mice; listed as low-dose RANKL", "result": "can induce TcREG at two, three, six and eight-weeks post-ovariectomy"},
      {"measurement": "bone mass of the proximal tibia by μCT", "setting": "ovariectomized mice; as E20", "result": "increased bone mass of the proximal tibia"},
      {"measurement": "mineral apposition and bone formation rate (dynamic histomorphometry)", "setting": "ovariectomized mice; as E20", "result": "increased mineral apposition (left panel) and bone formation rate"},
      {"measurement": "proinflammatory effector cells in the femora", "setting": "ovariectomized mice; as E20", "result": "decreased proinflammatory effector cells in the femora"},
      {"measurement": "serum CTX levels", "setting": "ovariectomized mice; as E20", "result": "decreased serum CTX levels"},
      {"measurement": "time for RANKL to overcome the repression of DLL4 by TNFα", "setting": "DLL4; 20 ng/ml TNFα", "result": "≤ 24", "unit": "h"},
      {"measurement": "DLL4 expression after additional RANKL", "setting": "DLL4; mature osteoclasts, 50 ng/ml RANKL and 20 ng/ml TNFα maintained", "result": "increased the expression of DLL4; also recorded: overcomes"},
      {"measurement": "proportion of FoxP3+ CD8 T cells in the bone marrow as a function of RANKL dose", "setting": "[1]", "result": "induced the largest proportion of FoxP3^+ CD8 T cells"}
    ]}
  ]
}
